Target: T1, HLA A2.1 (A*0201) (human)
T1 construct: whole, on cells; Endogenous HLA class I molecule of T2 cells and of EBV-transformed LCL; also called HLA A0201
Assay: T2 cell HLA A2.1 stabilisation assay, flow cytometry
Source text: This technique employs T2 cells which are peptide transporter-deficient and thus express low endogenous HLA class I levels due to inability to load peptide and stabilize HLA class I folding for surface expression.

B1: Hepsin peptide 170-178 (peptide)
peptide: SLGRWPWQV
notes: Synthesized peptide added to T2 cells or loaded onto LCL; also called hepsin 170-178
- binding result: binds
